The data set deals with the molecule itself. The data set can be described thus: AUC; sedimentation velocity (4 °C, 49,000 rpm) and sedimentation equilibrium; 25 mM Tris-HCl pH 7.6, 200 mM NaCl, 2 mM TCEP; SE fitted with a single species model.

B1: human SSRP1 lacking the C-terminal ID regions and the HMG domain (residues 1–433) (domain or fragment, UniProt Q08945 1-433, looked up)
chain: MAETLEFNDVYQEVKGSMNDGRLRLSRQGIIFKNSKTGKVDNIQAGELTEGIWRRVALGHGLKLLTKNGHVYKYDGFRESEFEKLSDFFKTHYRLELMEKDLCVKGWNWGTVKFGGQLLSFDIGDQPVFEIPLSNVSQCTTGKNEVTLEFHQNDDAEVSLMEVRFYVPPTQEDGVDPVEAFAQNVLSKADVIQATGDAICIFRELQCLTPRGRYDIRIYPTFLHLHGKTFDYKIPYTTVLRLFLLPHKDQRQMFFVISLDPPIKQGQTRYHFLILLFSKDEDISLTLNMNEEEVEKRFEGRLTKNMSGSLYEMVSRVMKALVNRKITVPGNFQGHSGAQCITCSYKASSGLLYPLERGFIYVHKPPVHIRFDEISFVNFARGTTTTRSFDFEIETKQGTQYTFSSIEREEYGKLFDFVNAKKLNIKNRGLKEG
notes: structure-specific recognition protein-1 (SSRP1), human, residues 1–433 (PH1–PH4; lacks ID1, HMG, ID2); Homodimer by sedimentation equilibrium; predicted monomer mass 49.8 kDa; also called hSSRP1ΔCTD; hSSRP1; source: E. coli BL21 (DE3) Gold, purified (Ni-NTA, TEV treatment, anion-exchange, size-exclusion chromatography); not shown: His6, N-terminal, cleaved
For B1, the stoichiometry N (usually the number of molecules, sites or subunits per partner or assembly) worked out at 2.

The values are drawn from article PMC6028955 (The Journal of Biological Chemistry, 2018).
